According to article PMC10954664:

Biological target: Cysless ATL1_(cyto)-K400C (human) (UniProt Q8WXF7)
Assay: single-molecule photobleaching step counting (TIRF); LD655-labelled, biotinylated ATL1cyto-K mixed at ~2 μM with 1 mM GTPγS or GDP/AlF4-, diluted and immobilised (~0.3 nM) in a streptavidin-coated microfluidic chamber

stoichiometry N: 2
Substance: Cysless ATL1_(cyto)-K400C (from UniProt Q8WXF7 1-447) (domain or fragment)
